Data set [1] is described as follows: Pharmacokinetics study after s.c. injection in SD rats. Format: in vivo. As to the method:
Pharmacokinetic studies of EXT-Sol and EXT-SBA-15 were conducted in healthy male SD rats. Sixteen rats were randomly divided into two groups (n = 8) and fasted overnight with free access to water before administration. SD rats were received s.c. administration of EXT-Sol and EXT-SBA-15 at a single EXT dose of 50 μg/kg, respectively. The blood samples (0.5 mL) of EXT-Sol treatment group were collected from the rat’s orbit and at specific time 0, 0.25, 0.5, 1, 1.5, 2, 3, 4, 6, 8 h after injection. The blood samples (0.5 mL) of EXT-SBA-15 treatment group (0.5 mL) were collected at 0, 0.5, 1, 1.5, 2, 3, 5, 8, 12, 24, 36, 48, 72, 120 h. The collected blood samples were centrifuged at 503×g for 10 min to obtain the plasma, which were stored at −80 °C for further analysis. The plasma concentrations of EXT were measured by Exendin-4 ELISA kit according to the instructions supplied by the manufacturer. The relevant pharmacokinetic parameters were analyzed by PKSolver 2.0 [25].

The test system of data set [2] is STZ-induced type 2 diabetic ICR mice (blood glucose). The data set is described as follows: In vivo pharmacodynamics study: blood glucose of STZ-induced type 2 diabetic mice. Particulars: s.c., EXT 3 μg/kg/d twice daily, days 0-25, measured before administration, n = 6. The protocol:
Type 2 diabetes model was induced by STZ with multiple injection method into ICR mice. Each mouse was injected intraperitoneally with 30 mg/kg⋅d STZ in 0.1 mol/L citric acid buffer (pH 5.0). One week after the injection, mice were fasted for 12 h (with free access to water) before their blood glucose was measured by glucometer (Accu-Chek Performa, Germany). Diabetic mice were considered by fasting blood glucose above 11.1 mmol/L. Six healthy normal ICR mice were used as the blank control group (A). Twenty-four mice that had developed type 2 diabetes were randomly divided into four experimental groups and received s.c. administration of saline (B), EXT-Sol (C), EXT-SBA-15 (D) and SBA-15 (E), respectively. Group A and B received saline twice daily via s.c. administration. Group C received EXT-Sol twice daily with a dose of EXT (3 μg/kg/d). Group D and E were administrated a single injection of EXT-SBA-15 (600 μg/kg) and SBA-15 via s.c. administration, respectively. The blood sample (about 0.2 ml) was collected from the tail-vein on days 0, 1, 5, 10, 15, 20, 25 for all groups, and blood glucose levels were determined measured simultaneously with a glucometer before administration.

Setting [3] is: single EXT dose 50 μg/kg, plasma, Exendin-4 ELISA, Mean ± SD, n = 8.
The mark [4] stands for this setting: single EXT dose 50 μg/kg, plasma, Exendin-4 ELISA, two-compartment model, Mean ± SD, n = 8.

“EXT-Sol: Exenatide (EXT) solution, injected s.c. as comparator”: the “time at which plasma concentration had decreased to baseline” value in data set [1] (EXT dose 50 μg/kg) worked out at 8 h. Besides, in data set [1] (setting [3]), the AUC0→t is recorded as 1.71 ± 0.07 ng⋅ml^−1⋅h, the “AUC0→∞” value was found to be 1.71 ± 0.07 ng⋅ml^−1⋅h, the “MRT mean residence time” value is 1.14 ± 0.07 h and the “c max peak concentration” value is listed as 1.16 ± 0.09 ng⋅ml^−1. Further, in data set [1] (setting [4]), the “t 1/2(α) half-life of distribution” value was 13.2 ± 1.8 min and the “t 1/2(β) half-life of elimination” value was 36 ± 4.8 min. The “long-term glucose lowering effect, up to 25 days” value in data set [2] is on record as “not observed”.

For the origin of these results see PMC5583966, “Sustained-release study on Exenatide loaded into mesoporous silica nanoparticles: in vitro characterization and in vivo evaluation” (DARU Journal of Pharmaceutical Sciences, 2017).
